# Source: patent US20180044434A1 (PUBLIC UNIVERSITY CORPORATION YOKOHAMA CITY UNIVERSITY, published 2018)
# Changes are numbered by the printed parent chain.
# T1: Ala mutant of TA0096, SEQ ID NO: 38
# T1 peptide: EENMDDQWMQDAMEIGY
# T2: Ala mutant having 3-amino acid substitution, SEQ ID NO: 48
# T2 peptide: EENMDDQWMQDEAAAGY
# T3: Ala mutant of TA0096, SEQ ID NO: 27
# T3 peptide: AENMDDQWMQDEMEIGY
# T4: Ala mutant having 3-amino acid substitution, SEQ ID NO: 45
# T4 peptide: EENAAAQWMQDEMEIGY
# T5: Ala mutant of TA0096, SEQ ID NO: 37
# T5 peptide: EENMDDQWMQAEMEIGY
# T6: Ala mutant of TA0096, SEQ ID NO: 28
# T6 peptide: EANMDDQWMQDEMEIGY
# T7: Ala mutant having 3-amino acid substitution, SEQ ID NO: 44
# T7 peptide: AAAMDDQWMQDEMEIGY
# T8: Ala mutant of TA0096, SEQ ID NO: 35
# T8 peptide: EENMDDQWAQDEMEIGY
# T9: Ala mutant having 3-amino acid substitution, SEQ ID NO: 47
# T9 peptide: EENMDDQWMAAAMEIGY
# T10: Ala mutant of TA0096, SEQ ID NO: 43
# T10 peptide: EENMDDQWMQDEMEIGA
# T11: Ala mutant of TA0096, SEQ ID NO: 30
# T11 peptide: EENADDQWMQDEMEIGY
# T12: Ala mutant of TA0096, SEQ ID NO: 42
# T12 peptide: EENMDDQWMQDEMEIAY
# T13: Ala mutant of TA0096, SEQ ID NO: 40
# T13 peptide: EENMDDQWMQDEMAIGY
# T14: Ala mutant of TA0096, SEQ ID NO: 29
# T14 peptide: EEAMDDQWMQDEMEIGY
# T15: TA0096 (peptide antigen corresponding to positions 340 to 356 of PAD4)
# T15 peptide: EENMDDQWMQDEMEIGY
# T16: Ala mutant of TA0096, SEQ ID NO: 36
# T16 peptide: EENMDDQWMADEMEIGY
# T17: Ala mutant of TA0096, SEQ ID NO: 33
# T17 peptide: EENMDDAWMQDEMEIGY
# T18: Ala mutant of TA0096, SEQ ID NO: 41
# T18 peptide: EENMDDQWMQDEMEAGY
# T19: Ala mutant of TA0096, SEQ ID NO: 31
# T19 peptide: EENMADQWMQDEMEIGY
# T20: Ala mutant of TA0096, SEQ ID NO: 34
# T20 peptide: EENMDDQAMQDEMEIGY
# T21: Ala mutant having 3-amino acid substitution, SEQ ID NO: 49
# T21 peptide: EENMDDQWMQDEMEIAA
# T22: Ala mutant of TA0096, SEQ ID NO: 39
# T22 peptide: EENMDDQWMQDEAEIGY
# B1: A11 (antibody, V domains shown)
# VH: AVTLDESGGGLQTPGGALSLVCKASGFDFSSYGMGWMRQAPGKGLEYVAAIRNDGSWTGYGAAVKGHATISRDNGQSTVRLQLNNLRAEDTGTYYCAKTTGSRGGSIDAWGHGTEVIVS
# VL: ASTQPSSVSANLGGTVEITCSGGGRYYYGWYQQKSPGSAPVTVIYANDKRPSDIPSRFSGSKSGSTGTLTITGVQAEDEAVYFCGSAETSSYVFGAGTTLTVL
# notes: Chicken variable regions in a mouse chimeric antibody (IgG1); also called anti-PAD4 antibody A11
# B2: G8 (antibody, V domains shown)
# VH: B1 VH with D28T, S31T, G33A, H67R, S71L, N84S, T99Y, R103S, D108G
# VL: ASTQPSSVSANLGGTVEITCSGGNRNYYYGWYQQKSPGSAPVTLIYANDKRPSNIPSRFSGSKSGSTGTLTITGVQAEDEAVYFCGTADTGKYVFGAGTTLTVL
# notes: Chicken variable regions in a mouse chimeric antibody (IgG1); also called anti-PAD4 antibody G8
# Molecular target: T23, full-length recombinant human PAD4 (human, UniProt Q9UM07 1-663)
# T23 construct: Full-length recombinant; also called peptidylarginine deiminase 4
# Assay: ELISA, coated human PAD4; antibody 0.015625 ug/mL
# T23 sequence (Q9UM07 whole entry): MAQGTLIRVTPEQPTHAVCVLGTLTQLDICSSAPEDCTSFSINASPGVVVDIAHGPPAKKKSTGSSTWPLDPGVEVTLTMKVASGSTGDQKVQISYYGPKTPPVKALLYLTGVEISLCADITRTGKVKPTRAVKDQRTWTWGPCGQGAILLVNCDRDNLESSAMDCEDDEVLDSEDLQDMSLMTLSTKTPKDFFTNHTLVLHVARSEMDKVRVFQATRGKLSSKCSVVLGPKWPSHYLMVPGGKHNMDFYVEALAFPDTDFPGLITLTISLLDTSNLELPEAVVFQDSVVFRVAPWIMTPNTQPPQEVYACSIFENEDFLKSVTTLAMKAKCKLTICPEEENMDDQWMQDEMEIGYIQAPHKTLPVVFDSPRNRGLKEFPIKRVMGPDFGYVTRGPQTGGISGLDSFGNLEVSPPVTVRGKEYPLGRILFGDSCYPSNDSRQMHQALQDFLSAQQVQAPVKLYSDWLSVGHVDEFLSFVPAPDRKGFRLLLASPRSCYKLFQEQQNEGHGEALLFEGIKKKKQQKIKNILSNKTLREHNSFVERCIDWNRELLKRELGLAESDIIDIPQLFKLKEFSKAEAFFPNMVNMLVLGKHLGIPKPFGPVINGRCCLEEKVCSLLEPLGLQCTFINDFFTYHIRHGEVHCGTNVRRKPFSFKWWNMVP
row,OD 490/630 nm,Binder
1,2.08,B1
2,2.08,B2

# Molecular target: full-length recombinant human or mouse PAD4 (species used for Table 7 and FIG. 7 not stated)
# Assay: cell-based or functional assay
row,Relative citrullination activity,Binder
1,64 relative to PBS = 100,B1
2,63 relative to PBS = 100,B2

# Molecular target: T23, full-length recombinant human PAD4
# Assay: ELISA, coated human PAD4; antibody 6.104E-05 ug/mL
row,OD 490/630 nm,Binder
1,0.063,B1
2,0.1,B2

# Molecular target: T24, full-length recombinant mouse PAD4 (mouse, UniProt Q9Z183 1-666)
# T24 construct: mature; Full-length recombinant
# Assay: ELISA, coated mouse PAD4; antibody 1 ug/mL
# T24 sequence (Q9Z183 whole entry): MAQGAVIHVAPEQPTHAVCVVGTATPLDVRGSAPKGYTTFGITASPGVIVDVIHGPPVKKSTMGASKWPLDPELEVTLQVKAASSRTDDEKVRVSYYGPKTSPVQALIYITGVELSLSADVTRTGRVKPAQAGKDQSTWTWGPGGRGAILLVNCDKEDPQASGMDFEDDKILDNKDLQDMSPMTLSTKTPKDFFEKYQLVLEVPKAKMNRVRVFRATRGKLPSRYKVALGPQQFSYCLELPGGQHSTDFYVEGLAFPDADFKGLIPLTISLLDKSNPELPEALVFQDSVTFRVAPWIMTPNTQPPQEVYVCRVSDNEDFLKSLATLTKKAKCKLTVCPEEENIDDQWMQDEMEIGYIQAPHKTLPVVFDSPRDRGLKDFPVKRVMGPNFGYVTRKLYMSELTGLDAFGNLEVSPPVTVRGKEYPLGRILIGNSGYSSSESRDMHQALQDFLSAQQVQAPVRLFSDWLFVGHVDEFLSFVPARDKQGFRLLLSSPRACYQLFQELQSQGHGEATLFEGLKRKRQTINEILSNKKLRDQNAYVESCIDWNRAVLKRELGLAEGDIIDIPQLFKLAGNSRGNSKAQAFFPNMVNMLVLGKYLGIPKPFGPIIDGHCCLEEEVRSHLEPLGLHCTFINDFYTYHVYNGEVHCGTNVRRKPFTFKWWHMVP
row,OD 490/630 nm,Binder
1,2.24,B1
2,2.26,B2

# Molecular target: T23, full-length recombinant human PAD4
# Assay: ELISA, coated human PAD4; antibody 0.25 ug/mL
row,OD 490/630 nm,Binder
1,2.11,B1
2,2.1,B2

# Molecular target: T23, full-length recombinant human PAD4
# Assay: ELISA, coated human PAD4; antibody 0.0002441 ug/mL
row,OD 490/630 nm,Binder
1,0.206,B1
2,0.184,B2

# Molecular target: T24, full-length recombinant mouse PAD4
# Assay: ELISA, coated mouse PAD4; antibody 0.0039063 ug/mL
row,OD 490/630 nm,Binder
1,1.07,B1
2,1.42,B2

# Molecular target: T1, Ala mutant of TA0096, SEQ ID NO: 38
# Assay: ELISA, coated peptide
row,OD 490/630 nm,Binder
1,1.89,B1
2,1.91,B2

# Molecular target: T2, Ala mutant having 3-amino acid …
# Assay: ELISA, coated peptide
row,OD 490/630 nm,Binder
1,1.87,B1
2,1.88,B2

# Molecular target: T3, Ala mutant of TA0096, SEQ ID NO: 27
# Assay: ELISA, coated peptide
row,OD 490/630 nm,Binder
1,1.95,B1
2,1.96,B2

# Molecular target: T4, Ala mutant having 3-amino acid …
# Assay: ELISA, coated peptide
row,OD 490/630 nm,Binder
1,0.039,B1
2,0.065,B2

# Molecular target: T5, Ala mutant of TA0096, SEQ ID NO: 37
# Assay: ELISA, coated peptide
row,OD 490/630 nm,Binder
1,1.8,B1
2,1.88,B2

# Molecular target: T6, Ala mutant of TA0096, SEQ ID NO: 28
# Assay: ELISA, coated peptide
row,OD 490/630 nm,Binder
1,2,B1
2,1.94,B2

# Molecular target: T7, Ala mutant having 3-amino acid …
# Assay: ELISA, coated peptide
row,OD 490/630 nm,Binder
1,1.98,B1
2,1.9,B2

# Molecular target: T8, Ala mutant of TA0096, SEQ ID NO: 35
# Assay: ELISA, coated peptide
row,OD 490/630 nm,Binder
1,0.023,B1
2,0.233,B2

# Molecular target: T9, Ala mutant having 3-amino acid …
# Assay: ELISA, coated peptide
row,OD 490/630 nm,Binder
1,1.25,B1
2,1.86,B2

# Molecular target: T10, Ala mutant of TA0096, SEQ ID NO: 43
# Assay: ELISA, coated peptide
row,OD 490/630 nm,Binder
1,1.92,B1
2,1.92,B2

# Molecular target: T11, Ala mutant of TA0096, SEQ ID NO: 30
# Assay: ELISA, coated peptide
row,OD 490/630 nm,Binder
1,2.03,B1
2,1.93,B2

# Molecular target: T12, Ala mutant of TA0096, SEQ ID NO: 42
# Assay: ELISA, coated peptide
row,OD 490/630 nm,Binder
1,1.88,B1
2,1.86,B2

# Molecular target: T13, Ala mutant of TA0096, SEQ ID NO: 40
# Assay: ELISA, coated peptide
row,OD 490/630 nm,Binder
1,1.85,B1
2,1.89,B2

# Molecular target: T14, Ala mutant of TA0096, SEQ ID NO: 29
# Assay: ELISA, coated peptide
row,OD 490/630 nm,Binder
1,2.05,B1
2,1.91,B2

# Molecular target: T15, TA0096 (peptide antigen corresponding …)
# Assay: ELISA, coated peptide
row,OD 490/630 nm,Binder
1,1.81,B1
2,1.88,B2

# Molecular target: T16, Ala mutant of TA0096, SEQ ID NO: 36
# Assay: ELISA, coated peptide
row,OD 490/630 nm,Binder
1,1.91,B1
2,1.92,B2

# Molecular target: T17, Ala mutant of TA0096, SEQ ID NO: 33
# Assay: ELISA, coated peptide
row,OD 490/630 nm,Binder
1,2.09,B1
2,1.98,B2

# Molecular target: T18, Ala mutant of TA0096, SEQ ID NO: 41
# Assay: ELISA, coated peptide
row,OD 490/630 nm,Binder
1,1.85,B1
2,1.85,B2

# Molecular target: T19, Ala mutant of TA0096, SEQ ID NO: 31
# Assay: ELISA, coated peptide
row,OD 490/630 nm,Binder
1,1.67,B1
2,1.85,B2

# Molecular target: T20, Ala mutant of TA0096, SEQ ID NO: 34
# Assay: ELISA, coated peptide
row,OD 490/630 nm,Binder
1,0.021,B1
2,0.04,B2

# Molecular target: T21, Ala mutant having 3-amino acid …
# Assay: ELISA, coated peptide
row,OD 490/630 nm,Binder
1,1.89,B1
2,1.86,B2

# Molecular target: T22, Ala mutant of TA0096, SEQ ID NO: 39
# Assay: ELISA, coated peptide
row,OD 490/630 nm,Binder
1,1.89,B1
2,1.88,B2

# Molecular target: T24, full-length recombinant mouse PAD4
# Assay: ELISA, coated mouse PAD4; antibody 0.015625 ug/mL
row,OD 490/630 nm,Binder
1,2.02,B1
2,2.25,B2

# Molecular target: T24, full-length recombinant mouse PAD4
# Assay: ELISA, coated mouse PAD4; antibody 0.25 ug/mL
row,OD 490/630 nm,Binder
1,2.25,B1
2,2.25,B2
